The record followed here is paper PMC7810697, “Sarcolipin alters SERCA1a interdomain communication by impairing binding of both calcium and ATP” (Scientific Reports, 2021).

In assay [1] the target is recombinant wild-type rabbit SERCA1a (sarco-endoplasmic reticulum Ca2+-ATPase, isoform 1a) expressed in S. cerevisiae (rabbit) (UniProt P04191).
Assay [2] concerns the target native SERCA1a in DDM-solubilized rabbit sarco-endoplasmic reticulum membranes (rabbit) (UniProt P04191).
In assay [3] the target is recombinant wild-type rabbit SERCA1a (sarco-endoplasmic reticulum Ca2+-ATPase, isoform 1a) expressed in S. cerevisiae (rabbit) (UniProt P04191). This is another data set of the same source.
Assay [4] has as its target native SERCA1a in DDM-solubilized rabbit sarco-endoplasmic reticulum membranes (rabbit) (UniProt P04191). This is another data set of the same source.

Sequence of recombinant wild-type rabbit SERCA1a (sarco-endoplasmic reticulum Ca2+-ATPase, isoform 1a) expressed in S. cerevisiae (rabbit) (P04191 other isoform, or with tags, fused parts or gaps): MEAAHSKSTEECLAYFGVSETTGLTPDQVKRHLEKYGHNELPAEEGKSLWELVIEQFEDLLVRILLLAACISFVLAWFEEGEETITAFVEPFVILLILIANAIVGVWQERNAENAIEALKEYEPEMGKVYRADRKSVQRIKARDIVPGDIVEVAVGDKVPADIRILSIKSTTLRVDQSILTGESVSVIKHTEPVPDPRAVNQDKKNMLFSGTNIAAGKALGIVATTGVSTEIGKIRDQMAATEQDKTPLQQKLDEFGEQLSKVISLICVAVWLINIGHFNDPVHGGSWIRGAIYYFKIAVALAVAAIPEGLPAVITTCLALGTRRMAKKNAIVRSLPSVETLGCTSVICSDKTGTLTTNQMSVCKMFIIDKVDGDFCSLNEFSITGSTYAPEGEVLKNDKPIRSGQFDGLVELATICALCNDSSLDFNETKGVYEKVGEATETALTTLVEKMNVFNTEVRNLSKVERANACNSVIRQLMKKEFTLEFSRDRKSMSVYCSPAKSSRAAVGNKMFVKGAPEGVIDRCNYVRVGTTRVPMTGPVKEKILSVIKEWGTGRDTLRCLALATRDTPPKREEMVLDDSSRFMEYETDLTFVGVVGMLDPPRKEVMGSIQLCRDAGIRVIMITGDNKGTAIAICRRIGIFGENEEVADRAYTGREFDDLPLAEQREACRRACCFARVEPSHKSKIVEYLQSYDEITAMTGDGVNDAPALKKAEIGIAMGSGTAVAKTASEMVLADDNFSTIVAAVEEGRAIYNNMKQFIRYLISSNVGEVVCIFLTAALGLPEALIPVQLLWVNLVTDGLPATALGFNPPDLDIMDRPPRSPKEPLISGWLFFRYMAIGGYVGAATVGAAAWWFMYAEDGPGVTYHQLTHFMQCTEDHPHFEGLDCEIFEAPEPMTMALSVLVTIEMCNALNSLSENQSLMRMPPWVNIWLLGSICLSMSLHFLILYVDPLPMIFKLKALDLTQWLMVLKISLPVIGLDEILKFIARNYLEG
Sequence of native SERCA1a in DDM-solubilized rabbit sarco-endoplasmic reticulum membranes (rabbit) (P04191 other isoform, or with tags, fused parts or gaps): as above

Take “chemically synthesized non-palmitoylated rabbit sarcolipin (peptide)”: in assay [1], the SLN:SERCA1a ratio at half-inhibition of the phosphoenzyme level (ratios 1:1 to 1:50) (mol SLN added per mole of SERCA1a) amounted to 4.7; the amplitude of the inhibition of the phosphoenzyme level (dose-response fit) came to 28.6%; the t1/2 of phosphorylation from [γ32P]ATP starting from a calcium-deprived state, Sarcolipin:SERCA1a 10:1 (6.8 without SLN) was 13.7 s. Further, in assay [2], the SLN:SERCA1a ratio at half-inhibition of the phosphoenzyme level (ratios 1:1 to 1:50) (mol SLN added per mole of SERCA1a) was determined as 3.1 and the amplitude of the inhibition of the phosphoenzyme level (dose-response fit) amounted to 19%. In assay [3], the IC50 of inhibition of the phosphoenzyme level, as told in the discussion (mol of added SLN/mole of SERCA1a) was found to be 4.5. The same substance had an IC50 of inhibition of the phosphoenzyme level, as told in the discussion (mol added SLN/mole of SERCA1a) in assay [4] of 2.9.

On to “chemically synthesized S-palmitoylated rabbit sarcolipin (peptide)”, for which, in assay [1], the SLN:SERCA1a ratio at half-inhibition of the phosphoenzyme level (ratios 1:1 to 1:50) (mol SLN added per mole of SERCA1a) was determined as 5.1; the amplitude of the inhibition of the phosphoenzyme level (dose-response fit) is 31.2%; the t1/2 of phosphorylation from [γ32P]ATP starting from a calcium-deprived state, Sarcolipin:SERCA1a 10:1 (6.8 without SLN) was 13.5 s. In assay [2], the SLN:SERCA1a ratio at half-inhibition of the phosphoenzyme level (ratios 1:1 to 1:50) (mol SLN added per mole of SERCA1a) came out at 5.9 and the amplitude of the inhibition of the phosphoenzyme level (dose-response fit) is 28.1%. In addition, in assay [3], the IC50 of inhibition of the phosphoenzyme level, as told in the discussion (mol of added SLN/mole of SERCA1a) turned out to be 5. Further, the IC50 of inhibition of the phosphoenzyme level, as told in the discussion (mol added SLN/mole of SERCA1a) in assay [4] came out at 5.6.
